Starred links: 1 amine or outer side, 2 acyl side, 3 side chain; linkers in the order of their positions; H or OH if unused. Positions of bridges follow the written chain, without caps; N, C: chain ends. Non-standard residues stand in square brackets, D forms with d. Primed or numbered codes have the meaning given here. B5(11) = 2,2-bis(4-pentenyl)glycine = 2-amino-2-(pent-4-en-1-yl)hept-6-enoic acid (stitching residue, bears both staples), C=CCCCC(CCCC=C)(N[*:1])C(=O)[*:2]; B5(26) = 2-amino-2-(pent-4-en-1-yl)hept-6-enoic acid (bis-pentenylglycine), stitching residue carrying two staples, C=CCCCC(CCCC=C)(N[*:1])C(=O)[*:2]; B5(24) = 2-amino-2-(pent-4-en-1-yl)hept-6-enoic acid, 2,2-bis(4-pentenyl)glycine (stitching residue), C=CCCCC(CCCC=C)(N[*:1])C(=O)[*:2]; B5(21) = 2-amino-2-(pent-4-en-1-yl)hept-6-enoic acid, bis(4-pentenyl)glycine (stitching residue), C=CCCCC(CCCC=C)(N[*:1])C(=O)[*:2]; B5(9) = 2-amino-2-(pent-4-en-1-yl)hept-6-enoic acid (2,2-bis(4-pentenyl)glycine), C=CCCCC(CCCC=C)(N[*:1])C(=O)[*:2]; S(OMe) = O-methyl-L-serine, COC[C@H](N[*:1])C(=O)[*:2]; Phe(2-NO2) = N[C@@H](Cc1ccccc1[N+](=O)[O-])C(=O)O; Phe(2-OMe) = COc1ccccc1C[C@H](N)C(=O)O; His(τ-Me) = Cn1cnc(C[C@H](N)C(=O)O)c1; Bta = N[C@@H](Cc1csc2ccccc12)C(=O)O; His(π-Me) = Cn1cncc1C[C@H](N)C(=O)O; αAllylPro = C=CC[C@@]1(C(=O)O)CCCN1; NMeH = CN[C@@H](Cc1c[nH]cn1)C(=O)O; S8 = C=CCCCCCC[C@](C)(N)C(=O)O
T1: full-length beta-Catenin (Uniprot ID P35222) (Homo sapiens (Human), UniProt P35222 1-781)
T1 construct: The assay protocol says full-length beta-Catenin (Uniprot ID P35222); tags are not described; also called bCat; B-Catenin
T1 sequence: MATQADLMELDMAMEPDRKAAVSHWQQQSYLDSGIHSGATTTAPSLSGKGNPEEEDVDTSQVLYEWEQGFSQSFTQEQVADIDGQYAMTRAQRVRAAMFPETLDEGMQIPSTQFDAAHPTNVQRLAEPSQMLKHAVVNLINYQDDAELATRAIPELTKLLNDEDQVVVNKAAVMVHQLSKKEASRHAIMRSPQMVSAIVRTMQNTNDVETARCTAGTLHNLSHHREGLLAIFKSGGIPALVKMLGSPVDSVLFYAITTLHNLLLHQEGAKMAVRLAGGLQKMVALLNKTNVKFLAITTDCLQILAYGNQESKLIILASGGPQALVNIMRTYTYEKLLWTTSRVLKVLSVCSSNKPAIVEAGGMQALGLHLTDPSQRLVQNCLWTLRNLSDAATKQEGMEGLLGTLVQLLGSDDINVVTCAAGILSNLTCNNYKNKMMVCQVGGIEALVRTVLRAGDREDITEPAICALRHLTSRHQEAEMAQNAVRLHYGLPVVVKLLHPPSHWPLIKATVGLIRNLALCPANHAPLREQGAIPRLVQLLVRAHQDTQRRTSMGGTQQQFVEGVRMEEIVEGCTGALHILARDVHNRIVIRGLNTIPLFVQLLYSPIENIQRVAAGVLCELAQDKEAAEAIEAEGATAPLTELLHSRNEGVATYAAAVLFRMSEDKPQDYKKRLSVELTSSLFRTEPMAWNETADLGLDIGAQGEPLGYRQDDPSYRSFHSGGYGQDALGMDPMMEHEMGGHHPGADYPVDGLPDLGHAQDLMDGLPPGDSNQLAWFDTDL

T2: full-length beta-Catenin (Uniprot ID P35222) (Homo sapiens (Human), UniProt P35222 2-781)
T2 construct: Tags of the recombinant protein are not described for the FP assay; also called bCat; B-Catenin
T2 sequence: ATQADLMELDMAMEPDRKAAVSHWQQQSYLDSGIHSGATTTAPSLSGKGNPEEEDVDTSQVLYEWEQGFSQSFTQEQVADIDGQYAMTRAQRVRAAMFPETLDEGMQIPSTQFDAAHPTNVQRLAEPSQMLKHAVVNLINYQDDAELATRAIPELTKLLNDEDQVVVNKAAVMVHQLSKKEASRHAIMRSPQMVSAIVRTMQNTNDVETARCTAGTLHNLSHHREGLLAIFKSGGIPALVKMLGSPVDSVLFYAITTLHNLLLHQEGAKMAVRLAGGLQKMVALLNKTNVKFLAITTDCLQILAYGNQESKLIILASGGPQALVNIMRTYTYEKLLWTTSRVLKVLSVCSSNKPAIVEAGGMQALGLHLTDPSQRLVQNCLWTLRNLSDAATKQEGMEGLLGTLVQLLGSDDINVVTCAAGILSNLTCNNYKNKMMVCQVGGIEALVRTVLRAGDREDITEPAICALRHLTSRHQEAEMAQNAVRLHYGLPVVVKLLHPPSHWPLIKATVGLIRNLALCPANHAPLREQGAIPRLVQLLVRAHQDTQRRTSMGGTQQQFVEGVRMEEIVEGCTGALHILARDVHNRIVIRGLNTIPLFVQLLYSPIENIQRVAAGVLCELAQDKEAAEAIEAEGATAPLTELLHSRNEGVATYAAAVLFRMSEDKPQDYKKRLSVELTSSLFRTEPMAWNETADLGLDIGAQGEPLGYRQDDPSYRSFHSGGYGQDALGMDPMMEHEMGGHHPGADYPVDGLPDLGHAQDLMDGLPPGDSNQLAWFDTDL

T3: full-length beta-Catenin (Uniprot ID P35222) (Homo sapiens (Human), UniProt P35222 1-781)
T3 construct: also called bCat; B-Catenin
T3 sequence: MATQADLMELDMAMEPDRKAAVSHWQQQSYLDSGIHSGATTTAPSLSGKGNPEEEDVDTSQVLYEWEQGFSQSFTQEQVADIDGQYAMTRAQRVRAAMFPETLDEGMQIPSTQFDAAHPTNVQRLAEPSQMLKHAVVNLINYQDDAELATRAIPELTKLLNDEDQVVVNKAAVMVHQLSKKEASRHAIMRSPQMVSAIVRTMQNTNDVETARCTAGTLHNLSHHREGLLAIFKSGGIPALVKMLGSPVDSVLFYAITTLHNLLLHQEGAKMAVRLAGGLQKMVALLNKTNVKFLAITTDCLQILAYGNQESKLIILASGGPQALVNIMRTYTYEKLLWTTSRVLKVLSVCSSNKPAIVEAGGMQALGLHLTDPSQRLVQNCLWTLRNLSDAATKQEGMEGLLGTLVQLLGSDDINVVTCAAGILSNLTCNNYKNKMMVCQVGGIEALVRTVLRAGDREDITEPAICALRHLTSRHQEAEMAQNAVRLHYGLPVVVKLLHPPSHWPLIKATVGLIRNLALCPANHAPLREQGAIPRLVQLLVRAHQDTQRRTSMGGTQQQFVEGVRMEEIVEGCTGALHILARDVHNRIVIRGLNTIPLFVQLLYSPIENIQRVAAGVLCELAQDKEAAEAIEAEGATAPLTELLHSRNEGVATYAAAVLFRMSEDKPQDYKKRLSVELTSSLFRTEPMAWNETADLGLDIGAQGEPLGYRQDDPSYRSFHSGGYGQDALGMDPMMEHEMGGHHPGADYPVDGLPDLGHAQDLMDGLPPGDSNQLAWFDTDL


Legend:
[1] = molecular target: T1, full-length beta-Catenin (Uniprot ID …); assay: fluorescence polarization competition: full-length beta-catenin + 5FAM-TCF4(10-53) probe, peptide titrated
Procedure: (§1) The plate was incubated protected from light for 60 minutes at 20° C. prior to read. Reads were performed on a CLARIOstar plate reader (BMG Labtech) in duplicate, and data were fitted to a 1:1 binding model with hill slope using an in-house script. All provided concentrations are final concentrations.

[2] = molecular target: T2, full-length beta-Catenin (Uniprot ID …); assay: fluorescence polarization competition; full-length beta-catenin, competitor 5FAM-TCF4 10-53
Procedure: as §1

[3] = molecular target: T3, full-length beta-Catenin (Uniprot ID …); assay: fluorescence polarization competition; full-length beta-catenin, competitor 5FAM-TCF4(10-53) probe
Procedure: as §1

Binder | EC50 [1] | IC50 [3] | other results
Ac-[αAllylPro]DA[B5(26)]DEAAFN[S8][His(π-Me)][Bta]Q-NH2 (staple 1-4, 4-11, Stapled (stitched) peptide with non-natural residues) [I-438] | 5000 nM | – | –
Ac-[αAllylPro]DA[B5(24)]DEAAF[S(OMe)][S8]F[Bta]Q-NH2 (staple 1-4, 4-11, Stapled (stitched) peptide with non-natural residues) [I-433] | 136 nM | – | –
Ac-[αAllylPro]DI[B5(9)]DELAFQ[S8]F[Bta]Q-NH2 (staple 1-4, 4-11, Stapled peptide composition; also called Ac-PL3-Asp-Ile-B5-Asp-Glu-Leu-Ala-Phe-Gln-S8-Phe-BztA-Gln-NH2) [I-648] | – | – | IC50 [2]: 233 nM
XDLXDEAAFNXFXH (not fully specified; N-terminal Ac; C-terminal NH2; PL3 at 1, B5 at 4, S8 at 11, BztA at 13, dHis (D-His) at 14; stapled PL3-B5 and B5-S8 by olefin metathesis, Stapled peptide; also called Ac-PL3-Asp-Leu-B5-Asp-Glu-Ala-Ala-Phe-Asn-S8-Phe-BztA-dHis-NH2) [I-744] | – | 112 nM | –
Ac-[αAllylPro]DA[B5(24)]DEAAFN[S8][Phe(2-OMe)][Bta]Q-NH2 (staple 1-4, 4-11, Stapled (stitched) peptide with non-natural residues) [I-437] | 26 nM | – | –

Further lines, with some results ahead:

EC50 [1] | IC50 [3] | Binder | other results
5000 nM | – | XDAXDEAAFNXHXQ (not fully specified; Ac-PL3-Asp-Ala-B5-Asp-Glu-Ala-Ala-Phe-Asn-S8-1meH-BztA-Gln-NH2; N-terminal acetyl, C-terminal amide; stapled PL3(1)-B5(4) and B5(4)-S8(11) by olefin metathesis, Staple isomer composition: later-eluting HPLC peak) [I-440] | –
5000 nM | – | Ac-[αAllylPro]DA[B5(21)]DEAAFN[S8][His(τ-Me)][Bta]Q-NH2 (staple 1-4, 4-11, Staple isomer composition: earlier-eluting HPLC peak) [I-439] | –
133 nM | – | Ac-[αAllylPro]DA[B5(21)]DEAAFN[S8][Phe(2-NO2)][Bta]Q-NH2 (staple 1-4, 4-11, Stapled (stitched) peptide with non-natural residues) [I-441] | –
– | 5000 nM | Ac-[αAllylPro]DL[B5(11)]DEAAFN[S8]F[Bta][NMeH]-NH2 (staple 1-4, 4-11; not fully specified, Stapled peptide; same description as I-747, earlier eluting staple isomer composition; also called Ac-PL3-Asp-Leu-B5-Asp-Glu-Ala-Ala-Phe-Asn-S8-Phe-BztA-NMeHis-NH2) [I-746] | –
– | 54 nM | XDLXDEAAFNXFXT (not fully specified; N-terminal Ac; C-terminal NH2; PL3 at 1, B5 at 4, S8 at 11, BztA at 13; stapled PL3-B5 and B5-S8 by olefin metathesis, Stapled peptide; same description as I-749, earlier eluting staple isomer composition; also called Ac-PL3-Asp-Leu-B5-Asp-Glu-Ala-Ala-Phe-Asn-S8-Phe-BztA-Thr-NH2) [I-748] | –
